One assay concerns the target Human TFPI/His. Briefly: ELISA; fit not_stated; antibody as IgG; antigen as monomer; on the surface: target; avidity possible.
In assay [1] the target is Recombinant human TFPI protein. Kind of assay: BLI; fit kinetic; antibody as IgG; antigen as not_told; on the surface: binder; avidity not_told. The note with it: 30.0 °C; for koff: pH 7.4.

Take Concizumab: the EC50 in the assay with Human TFPI/His (pH 4.0) came out at 16.5 ng/mL; with Human TFPI/His (pH 4.5), 4.94 ng/mL; with Human TFPI/His (pH 5.0), 4.83 ng/mL; with Human TFPI/His (pH 5.5), 5 ng/mL; with Human TFPI/His (pH 6.0), 6.1 ng/mL; with Human TFPI/His (pH 6.5), 4.9 ng/mL. The same substance came in with a concentration giving a half-maximal response (EC50) with Human TFPI/His (pH 7.4) of 4.25 ng/mL. Further, the Koff Ratio (pH6.0/pH7.4) in assay [1] (pH 6.0, second pH 7.4) turned out to be 0.9. Further, the dissociation rate constant (koff) in assay [1] is 4.01e-07 s⁻¹; in assay [1] (second pH 6.0), 3.6e-07 s⁻¹.
In the case of Marstacimab, the EC50 with Human TFPI/His (pH 4.0) was 5.87 ng/mL; in the assay with Human TFPI/His (pH 4.5), 3.15 ng/mL; with Human TFPI/His (pH 5.0), 3.97 ng/mL; with Human TFPI/His (pH 5.5), 2.18 ng/mL; with Human TFPI/His (pH 6.0), 3.19 ng/mL; in the assay with Human TFPI/His (pH 6.5), 3.87 ng/mL. In the assay with Human TFPI/His (pH 7.4), this substance returned an EC50 of 4.01 ng/mL.

The values above are taken from patent EP4722251.
